The values below come from doi:10.1101/2020.12.29.424679 (bioRxiv, 2020).

To fix the notation:
B1: Human BRCA2 fragment FNMR (S2252-Q2342) (domain or fragment)
chain: SLFTCPENEEMVLSNSRIGKRRGEPLILVGEPSIKRNLLNEFDRIIENQEKSLKASKSTPDGTIKDRRLFMHHVSLEPITTVPFRTTKERQ
B2: Armadillo domain of HSF2BP (ARM, aa 122 to aa 334) (domain or fragment)
chain: EMGAAACTLLWGVSSSEEVVKAILGGDKALKFFSITGQTMESFVKSLDGDVQELDSDESQFVFALAGIVTNVAAIACGREFLVNSSRVLLDTILQLLGDLKPGQCTKLKVLMLMSLYNVSINLKGLKYISESPGFIPLLWWLLSDPDAEVCLHVLRLVQSVVLEPEVFSKSASEFRSSLPLQRILAMSKSRNPRLQTAAQELLEDLRTLEHNV
B3: Human BRCA2 fragment F0 (S2213-Q2342, C2332T) (domain or fragment)
chain: STYSKDSENYFETEAVEIAKAFMEDDELTDSKLPSHATHSLFTCPENEEMVLSNSRIGKRRGEPLILVGEPSIKRNLLNEFDRIIENQEKSLKASKSTPDGTIKDRRLFMHHVSLEPITTVPFRTTKERQ
B4: Mouse HSF2BP, natively expressed in ES cells (natural protein)
chain: MAATVGDGSGTEEACRNMESKEEFVKVRKKDLERLTTEVMQIRDFLPRILNGELLESFQKLKMVEKNLERKEQELEQLIMDREHFKARLETAQADSGREKKEKLALRQQLNEAKQQLLQQAEYCTQMGAVTCTLLWGVSSSEEVVKTILGGDKALKFFNITGQTMESFVKSLDGDVKEVDSDENQFVFALAGIVTNVAAIACGREFLVNSSRVLLDTMLQLLGDLKPGQCTKLKVLMLMSLYNVSINSKGLKYITESPGFIPLLWWLLSDPDAEVCLHTLRLIQSVVLEPDVFSKVASELQSSLPLQRILAMSKSRNSHLQSAAQELLEDLRALDCNV
B5: Human BRCA2 fragment F15X (N2291-Q2342) (peptide)
chain: NEFDRIIENQEKSLKASKSTPDGTIKDRRLFMHHVSLEPITTVPFRTTKERQ

Series [1] deals with Mouse HSF2BP-GFP (mouse (knock-in allele in mES cells)) (UniProt Q9D4G2). As to the kind of experiment: co-IP.
Series [2] concerns the target T1, Human full length HSF2BP WT (human, UniProt O75031 1-334).
T1 sequence: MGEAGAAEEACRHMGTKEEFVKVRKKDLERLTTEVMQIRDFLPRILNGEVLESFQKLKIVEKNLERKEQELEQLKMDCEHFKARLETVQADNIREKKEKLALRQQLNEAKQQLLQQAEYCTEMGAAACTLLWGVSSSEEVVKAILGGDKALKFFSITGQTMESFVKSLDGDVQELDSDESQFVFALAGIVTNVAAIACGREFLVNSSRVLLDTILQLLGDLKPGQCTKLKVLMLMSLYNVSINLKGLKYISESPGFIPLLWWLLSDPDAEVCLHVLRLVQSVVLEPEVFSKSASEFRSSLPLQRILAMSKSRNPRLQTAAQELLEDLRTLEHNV
The series can be described thus: ITC.

The target in series [3] is B2. As to the kind of experiment: ITC. (In ITC the heat of successive injections is recorded.)
Series [4] deals with the molecule itself. The series can be described thus: SEC-MALS. A general note: SEC sorts molecules by how far they enter the pores of the column.
Series [5] concerns the molecule itself. The series can be described thus: SEC-MALS + other: SEC-SAXS.
In series [6] the target is Mouse BRCA2-GFP Δ12 (mouse (knock-in allele in mES cells)) (UniProt P97929). As to the kind of experiment: co-IP.
Mouse BRCA2-GFP Δ12 (mouse (knock-in allele in mES cells)), sequence (P97929 whole entry, stated change not applied): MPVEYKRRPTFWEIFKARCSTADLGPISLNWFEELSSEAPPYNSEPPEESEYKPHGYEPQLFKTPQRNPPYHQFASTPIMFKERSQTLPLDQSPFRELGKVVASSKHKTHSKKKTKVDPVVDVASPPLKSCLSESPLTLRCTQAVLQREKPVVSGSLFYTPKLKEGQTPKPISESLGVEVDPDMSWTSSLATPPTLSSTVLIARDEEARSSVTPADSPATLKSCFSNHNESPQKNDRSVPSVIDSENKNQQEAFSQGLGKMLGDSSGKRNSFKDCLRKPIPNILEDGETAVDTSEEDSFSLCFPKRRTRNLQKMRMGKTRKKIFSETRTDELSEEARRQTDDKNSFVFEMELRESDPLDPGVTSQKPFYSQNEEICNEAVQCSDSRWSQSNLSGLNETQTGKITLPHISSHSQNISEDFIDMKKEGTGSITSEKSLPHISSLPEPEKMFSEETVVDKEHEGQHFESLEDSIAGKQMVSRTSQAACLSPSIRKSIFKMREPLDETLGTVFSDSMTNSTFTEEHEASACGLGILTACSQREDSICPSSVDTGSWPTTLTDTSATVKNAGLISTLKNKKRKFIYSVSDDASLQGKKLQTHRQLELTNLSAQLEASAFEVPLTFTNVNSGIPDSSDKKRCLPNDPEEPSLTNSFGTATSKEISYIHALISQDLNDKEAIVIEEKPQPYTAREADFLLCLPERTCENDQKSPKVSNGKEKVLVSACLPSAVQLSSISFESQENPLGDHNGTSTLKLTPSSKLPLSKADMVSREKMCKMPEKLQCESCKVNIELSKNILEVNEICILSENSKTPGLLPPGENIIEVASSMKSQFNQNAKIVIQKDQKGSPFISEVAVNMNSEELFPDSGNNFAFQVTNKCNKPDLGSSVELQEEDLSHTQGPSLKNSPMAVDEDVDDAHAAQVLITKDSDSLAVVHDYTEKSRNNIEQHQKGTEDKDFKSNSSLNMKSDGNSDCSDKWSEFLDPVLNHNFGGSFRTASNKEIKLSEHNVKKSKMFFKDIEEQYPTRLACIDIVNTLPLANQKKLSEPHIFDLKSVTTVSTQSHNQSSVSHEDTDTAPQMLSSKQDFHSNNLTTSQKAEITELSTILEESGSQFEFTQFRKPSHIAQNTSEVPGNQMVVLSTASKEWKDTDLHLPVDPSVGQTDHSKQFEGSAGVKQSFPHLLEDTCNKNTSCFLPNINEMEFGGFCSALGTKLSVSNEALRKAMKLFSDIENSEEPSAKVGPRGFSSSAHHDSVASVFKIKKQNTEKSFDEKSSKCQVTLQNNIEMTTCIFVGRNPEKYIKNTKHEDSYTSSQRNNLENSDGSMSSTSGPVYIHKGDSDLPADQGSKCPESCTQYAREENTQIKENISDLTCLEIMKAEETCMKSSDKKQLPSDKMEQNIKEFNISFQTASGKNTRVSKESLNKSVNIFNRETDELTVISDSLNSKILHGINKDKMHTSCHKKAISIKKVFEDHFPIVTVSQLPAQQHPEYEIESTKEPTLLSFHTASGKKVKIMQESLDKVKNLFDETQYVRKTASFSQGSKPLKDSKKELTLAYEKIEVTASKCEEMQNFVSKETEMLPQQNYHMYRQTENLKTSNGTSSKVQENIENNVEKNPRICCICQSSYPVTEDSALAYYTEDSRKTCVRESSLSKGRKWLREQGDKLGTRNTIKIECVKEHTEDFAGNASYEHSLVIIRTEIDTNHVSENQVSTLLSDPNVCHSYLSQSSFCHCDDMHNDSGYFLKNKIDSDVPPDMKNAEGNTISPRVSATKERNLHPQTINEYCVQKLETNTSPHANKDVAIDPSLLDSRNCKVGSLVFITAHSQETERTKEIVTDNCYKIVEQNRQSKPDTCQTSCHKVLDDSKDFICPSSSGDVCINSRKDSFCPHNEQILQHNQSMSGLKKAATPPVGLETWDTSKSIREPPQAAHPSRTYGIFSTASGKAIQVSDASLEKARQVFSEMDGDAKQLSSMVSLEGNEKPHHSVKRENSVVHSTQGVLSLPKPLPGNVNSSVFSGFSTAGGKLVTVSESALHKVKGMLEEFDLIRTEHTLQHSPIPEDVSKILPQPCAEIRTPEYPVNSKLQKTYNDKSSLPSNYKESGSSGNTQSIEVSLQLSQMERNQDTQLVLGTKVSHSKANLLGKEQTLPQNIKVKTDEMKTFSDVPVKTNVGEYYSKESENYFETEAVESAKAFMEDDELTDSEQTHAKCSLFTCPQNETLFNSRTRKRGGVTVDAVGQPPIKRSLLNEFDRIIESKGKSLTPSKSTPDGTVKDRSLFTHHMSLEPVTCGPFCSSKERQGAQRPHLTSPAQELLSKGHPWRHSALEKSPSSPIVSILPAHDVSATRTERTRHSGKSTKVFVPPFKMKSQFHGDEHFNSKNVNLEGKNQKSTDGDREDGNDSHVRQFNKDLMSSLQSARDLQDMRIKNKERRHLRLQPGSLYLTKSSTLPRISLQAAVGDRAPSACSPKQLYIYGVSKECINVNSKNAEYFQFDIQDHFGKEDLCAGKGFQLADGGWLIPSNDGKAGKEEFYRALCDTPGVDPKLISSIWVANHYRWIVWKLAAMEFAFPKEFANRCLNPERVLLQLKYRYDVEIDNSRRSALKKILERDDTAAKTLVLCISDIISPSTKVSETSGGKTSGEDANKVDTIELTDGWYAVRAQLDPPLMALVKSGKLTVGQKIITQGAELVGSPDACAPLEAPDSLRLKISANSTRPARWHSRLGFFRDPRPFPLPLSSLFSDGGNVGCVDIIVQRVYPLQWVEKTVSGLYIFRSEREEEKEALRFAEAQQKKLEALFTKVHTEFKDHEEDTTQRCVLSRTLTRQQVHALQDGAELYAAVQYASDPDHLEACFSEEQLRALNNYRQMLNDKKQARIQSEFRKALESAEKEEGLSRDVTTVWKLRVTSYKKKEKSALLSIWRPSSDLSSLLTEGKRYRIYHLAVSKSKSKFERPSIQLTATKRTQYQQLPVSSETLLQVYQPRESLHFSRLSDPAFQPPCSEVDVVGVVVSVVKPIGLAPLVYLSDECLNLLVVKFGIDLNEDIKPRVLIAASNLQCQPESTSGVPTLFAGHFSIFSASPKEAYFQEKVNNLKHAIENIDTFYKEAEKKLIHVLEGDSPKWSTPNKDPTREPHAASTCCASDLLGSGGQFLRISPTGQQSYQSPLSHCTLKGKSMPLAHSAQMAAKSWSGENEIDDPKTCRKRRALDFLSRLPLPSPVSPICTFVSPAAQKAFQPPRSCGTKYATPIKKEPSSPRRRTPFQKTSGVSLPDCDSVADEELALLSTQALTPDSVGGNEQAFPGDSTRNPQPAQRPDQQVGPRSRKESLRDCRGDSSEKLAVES

Molecule “Mouse BRCA2-Δ12 (from UniProt P97929 1-3329) (natural protein)” yielded a percent loss of co-precipitation against wild-type BRCA2 in series [1] of 97 to 99%.

In series [2], BRCA2 peptide F15XΔ12 (D2312-E2342) registered a fold weaker affinity than HSF2BP for F0 of 1000 fold and a stoichiometry N of 1.

Regarding B1, in series [3], the Kd is ~10 nM and the “fold higher affinity than ARM for F0” value was ~3 fold.

B2: the figures for the “stoichiometry N” value in series [4] and in series [5] were 2 and 4, respectively.

Regarding B3, in series [2], the affinity, expressed as Kd, was 1 nM; the “fold tighter binding than ARM to F0” value was ~25 fold; the “stoichiometry N” value amounted to 0.5. The “stoichiometry N” value in series [3] was found to be 0.5.

In the case of B4, the percent loss of co-precipitation against full-length BRCA2-GFP in series [6] worked out at 95%.

Consider B5, for which, in series [3], the Kd is ~10 nM and the “fold higher affinity than ARM for F0” value was ~3 fold.

As usually defined, the stoichiometry N is a count of units in the complex or per binding partner. The term Kd denotes the equilibrium constant for the complex coming apart. Lower therefore signals higher affinity.
